In US5591427A, “Human Interleukin-3(Il-3) variants and their use to promote or antagonize IL-3-mediated processes” (Medvet Science Pty. Ltd., priority 1979, dated 1997):

How the values were obtained:
[1] = tested on: bone marrow progenitor cells; experiment: Colony assay: clonal proliferation and differentiation of bone marrow progenitor cells in semi-solid agar; type: cell-based
Method: (a) Colony assay: this assay measured the clonal proliferation and differentiation of bone marrow progenitor cells in semi-solid agar and was carried out as described (Lopez et. al., 1985, Blood 72, 1797-1804). Briefly, low density, macrophage-depleted bone marrow cells were cultured at a concentration of 0.5 to 1×10^5 /mL in Iscove's modified Dulbecco's medium (IMDM, GIBCI, Grant Island, N.Y.), containing 0.33% agar (Difco, Detroit), 25% FCS (Commonwealth Serum Laboratories, Parkville, Victoria, Australia), and 20 μmol/LK2-mercaptoethanol. Different dilutions of IL-3- containing COS cell supernatants were added to each plate. Plates were prepared in triplicate and scored after incubation at 37° C. in 5% CO2 in a humid atmosphere for 14 days. Clones containing 40 cells were scored as colonies.

[2] = biological target: T1, IL-3 high affinity receptor of monocytes (Homo sapiens, UniProt P26951+P32927); experiment: Competition for 125I-IL-3 binding to the high affinity receptor of monocytes; conditions: high affinity receptor on monocytes
T1 construct: endogenous in cells; host or cells: freshly purified human peripheral blood monocytes
T1 sequence (P26951 19-378): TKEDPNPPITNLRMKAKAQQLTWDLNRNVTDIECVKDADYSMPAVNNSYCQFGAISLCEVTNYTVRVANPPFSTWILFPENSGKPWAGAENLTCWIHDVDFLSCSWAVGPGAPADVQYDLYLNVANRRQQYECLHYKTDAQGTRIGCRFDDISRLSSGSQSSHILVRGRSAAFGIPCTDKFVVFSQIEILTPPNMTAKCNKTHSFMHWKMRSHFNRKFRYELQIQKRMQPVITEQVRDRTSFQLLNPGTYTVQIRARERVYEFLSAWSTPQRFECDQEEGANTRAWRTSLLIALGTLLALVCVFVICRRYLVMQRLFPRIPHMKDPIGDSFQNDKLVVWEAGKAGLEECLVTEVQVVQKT
T1 sequence (P32927 17-897): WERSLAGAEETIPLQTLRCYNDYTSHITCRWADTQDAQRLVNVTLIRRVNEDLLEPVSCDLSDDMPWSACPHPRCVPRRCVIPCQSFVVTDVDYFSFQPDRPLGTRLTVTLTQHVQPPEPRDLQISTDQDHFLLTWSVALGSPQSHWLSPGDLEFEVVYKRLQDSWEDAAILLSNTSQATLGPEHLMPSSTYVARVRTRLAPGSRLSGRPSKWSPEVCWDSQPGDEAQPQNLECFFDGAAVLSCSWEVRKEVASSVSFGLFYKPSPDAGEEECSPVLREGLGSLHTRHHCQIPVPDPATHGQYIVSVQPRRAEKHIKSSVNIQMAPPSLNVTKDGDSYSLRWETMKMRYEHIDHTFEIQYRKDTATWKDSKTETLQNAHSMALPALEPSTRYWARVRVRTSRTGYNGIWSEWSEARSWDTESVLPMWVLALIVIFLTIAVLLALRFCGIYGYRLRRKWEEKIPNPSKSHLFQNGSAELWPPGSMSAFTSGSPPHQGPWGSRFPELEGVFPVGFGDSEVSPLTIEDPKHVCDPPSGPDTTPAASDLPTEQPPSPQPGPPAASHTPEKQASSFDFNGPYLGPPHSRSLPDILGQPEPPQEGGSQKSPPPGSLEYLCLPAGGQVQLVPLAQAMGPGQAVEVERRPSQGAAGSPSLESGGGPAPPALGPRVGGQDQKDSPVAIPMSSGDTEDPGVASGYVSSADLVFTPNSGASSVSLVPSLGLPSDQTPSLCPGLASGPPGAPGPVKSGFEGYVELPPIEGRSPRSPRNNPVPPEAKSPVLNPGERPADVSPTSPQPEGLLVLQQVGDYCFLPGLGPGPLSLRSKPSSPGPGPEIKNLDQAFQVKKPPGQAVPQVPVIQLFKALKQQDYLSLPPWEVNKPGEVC
Method: (a) Radioiodination of hIL-3: rh IL-3 (gift from Dr. L. Park, Immunex Corporation, Seattle, Wash.) was radioiodinated by the ICI method as previously described (Contreras et. al., supra). Iodinated protein was separated from free ^125 I by chromatography on a Sephadex G-25 PD 10 column (Pharmacia, Uppsala, Sweden) equilibrated in phosphate-buffered saline (PBS) containing 0.02% Tween 20, and stored at 4° C. for up to 4 weeks. Before use, the iodinated protein was purified from Tween and nonprotein-associated radioactivity by cation exchange chromatography on a 0.3-ml CM-Sepharose CL-6B column (Pharmacia) and stored at 4° C. for up to 5 days.
(b) Competition Binding assay. Freshly purified monocytes were suspended in binding medium consisting of RPMI 1640 supplemented with 20 mmol/L/HEPES and 0.5% bovine serum albumin (BSA). […] Cell suspensions were then overlaid on 0.2 mL FCS at 4° C. and centrifuged for 30 seconds at a maximum speed in a Beckman Microfugre 12. The tip of each tube was cut off above the visible cell pellet and counted in a Packard Auto-Gamma 5650 (Downer's Grove, Ill). The results are expressed as Percent competition where 100% is the competition observed in the presence of 100 fold excess native IL-3.

[3] = tested on: basophils; experiment: Histamine release assay with basophils; type: cell-based, human; conditions: FIG. 4
Method: This was carried out as previously described (Lopez et. al., 1990, J. Cell. Physiol., 145, 69-77). Briefly, basophils were obtained from the peripheral blood of normal individuals after dextran sedimentation and centrifugation over Lymphoprep. The percentage of basophils in these preparations varied between 0.2% and 10%. In 300 μl 2×10^4 cells were incubated with 2 μg/ml of purified human IgE. IgE-sensitisedcells were mixed with a goat IgG antihuman IgE (Cappel 0101-0061) and rhIL-3, in a final volume of 500 μl. After incubation for 60 min at 37° C., the cells were centrifuged and 350 μl aliquots removed and stored at -20° C. before assaying for histamine content. Histamine was assayed using a radioertzymatic method essentially as described (Shaff and Beavan, 1979, Anal. Biochem., 94, 425-430). Briefly, samples of 30 μl were diluted with an equal volume of water and mixed with a 30 μl solution comprising 27.5 μl 0.1 M sodium phosphate, pH 7.9, 1.5 μl rat kidney histamine-N-methyltransferase, and 1.0 μl (0.5 μCi)^3 H-methyl-S-adensoyl-L-methionine (Dupont Net 155, low SA). Tritium-labelled methyl-histamine was extracted into chloroform/ether, dried, and counted by scintillation spectrophotometry. […] as nanograms of histamine per milliliter by extrapolation to a standard curve constructed with 10, 5 and 1 ng/ml of histamine (SIGMA).

B1: M37: human IL-3 mutant, Asp 101 replaced by Ala and Lys 116 by Val (protein, UniProt P08700 20-152, looked up, variant D101A K116V)
Interleukin-3: APMTQTTPLKTSWVNCSNMIDEIITHLKQPPLPLLDFNNLNGEDQDILMENNLRRPNLEAFNRAVKSLQNASAIESILKNLLPCLPLATAAPTRHPIHIKAGDWNEFRRKLTFYLVTLENAQAQQTTLSLAIF
How did the “number of day 14 colonies” value [1] turn out when B1 was run?
Its value is “increase in the number of day 14 colonies”.

What about the “Relative biological activity, PROLIFERATION COLONIES” value ([1]; concentration of IL-3 mutant giving 50% of biological activity compared to that of wild type IL-3, mean ± SD) of the same molecule?
Its value is 1700.

What about the “fold higher binding affinity than wild-type IL-3” value [2] of the same molecule?
Its value is 10-15 fold.

What about the “fold higher binding affinity than wild-type IL-3” value ([2]; listed as IL-3 (Ala^101, Val^116)) of the same molecule?
Its value is 16 fold.

And the “histamine release from basophils” value [3]?
Its value is “increased histamine release”.
